This is an account of results in patent US20120316071A1 (published 2012).

For assay [1], the target named is T1, Recombinant Human DLL4 (R&D Systems Cat#1506-D4/CF) (human, UniProt Q9NR61 27-524).
T1 construct: bought recombinant protein; also called rHuman DLL4; delta-like protein 4
Put plainly: ELISA titration, 2-fold dilutions from 20 nM Fab. In general terms: An ELISA detects its analyte on a solid surface through an enzyme-linked reagent.

In another assay the target is T2, Recombinant Human DLL4 (human, UniProt Q9NR61 27-524).
T2 construct: also called delta-like protein 4; rHuman DLL4
Put plainly: ECL (MSD) multispot binding assay, DLL4 spotted on plate, Fab in solution.

The target in assay [2] is T3, Recombinant Human DLL4 (delta-like protein 4) (human, UniProt Q9NR61 27-524).
T3 construct: Bought recombinant protein (R&D Systems Cat#1506-D4/CF) coated on the ELISA plate; also called rHuman DLL4; Delta-like 4
Put plainly: ELISA, DLL4 coated on plate, Fab at 20 nM, absorbance at 450 nm.

The target in assay [3] is T3, Recombinant Human DLL4 (delta-like …). Put plainly: ELISA, DLL4 coated on plate, Fab at 0.31 nM, absorbance at 450 nm.
Assay [4] has the same target. Put plainly: ELISA, DLL4 coated on plate, Fab at 2.5 nM, absorbance at 450 nm.
Assay [5] shares this target. Put plainly: ELISA, DLL4 coated on plate, Fab at 1.3 nM, absorbance at 450 nm.
For assay [6] the target is unchanged. Put plainly: ELISA, DLL4 coated on plate, Fab at 10 nM, absorbance at 450 nm.
For assay [7] the target is unchanged. Put plainly: ELISA, DLL4 coated on plate, Fab at 0.63 nM, absorbance at 450 nm.
For assay [8] the target is unchanged. Put plainly: ELISA, DLL4 coated on plate, Fab at 5 nM, absorbance at 450 nm.
For assay [9] the target is unchanged. Put plainly: ELISA, DLL4 coated on plate, Fab at 0.16 nM, absorbance at 450 nm.

B1: Fab VH1-46_IGHD6-6*01_IGHJ1*01 S102A/S103P/S104F/H111F I51T/N52V & L6_IGKJ1*01 (Fab, V domains shown)
VH: QVQLVQSGAEVKKPGASVKVSCKASGYTFTSYYMHWVRQAPGQGLEWMGITVPSGGSTSYAQKFQGRVTMTRDTSTSTVYMELSSLRSEDTAVYYCAREEYAPFSAEYFQFWGQGTLVTVSS
VL: not shown
notes: Fab; also called APFF I51T/N52V
By Kd is commonly meant the concentration at which binding is half-saturated. Turning to B1, the Kd in assay [1] was 10 to 100 nM.

B2: Fab VH1-46_IGHD6-6*01_IGHJ1*01 S102A/S103P/S104F/H111F (APFF) & L6_IGKJ1*01 W94M (Fab, V domains shown)
VH: QVQLVQSGAEVKKPGASVKVSCKASGYTFTSYYMHWVRQAPGQGLEWMGIINPSGGSTSYAQKFQGRVTMTRDTSTSTVYMELSSLRSEDTAVYYCAREEYAPFSAEYFQFWGQGTLVTVSS
VL: EIVLTQSPATLSLSPGERATLSCRASQSVSSYLAWYQQKPGQAPRLLIYDASNRATGIPARFSGSGSGTDFTLTISSLEPEDFAVYYCQQRSNMPPWTFGQGTKVEIKR
notes: Fab from E. coli; VH in Plasmid A (CH1, His6 and Flag tags), VL in Plasmid C (kappa CL); also called APFF & W94M
Regarding B2, the “ECL signal” value with Recombinant Human DLL4 came out at 33800.

B3: Fab VH1-46_IGHD6-6*01_IGHJ1*01 S102A/S103P/S104F/H111F I51V/N52L/S54T/G56H & L6_IGKJ1*01 (Fab, V domains shown)
VH: QVQLVQSGAEVKKPGASVKVSCKASGYTFTSYYMHWVRQAPGQGLEWMGIVLPTGHSTSYAQKFQGRVTMTRDTSTSTVYMELSSLRSEDTAVYYCAREEYAPFSAEYFQFWGQGTLVTVSS
VL: not shown
notes: Fab; also called APFF VLTH; APPF VLTH
For the molecule B3, in assay [1], the Kd was in the range of 1 to 10 nM.

B4: Fab VH1-46_IGHD6-6*01_IGHJ1*01 S102A/S103P/S104F/H111F/I51N/N52L/S54T/G56H (APFF NLTH) & L6_IGKJ1*01 (Fab, V domains shown)
VH: QVQLVQSGAEVKKPGASVKVSCKASGYTFTSYYMHWVRQAPGQGLEWMGINLPTGHSTSYAQKFQGRVTMTRDTSTSTVYMELSSLRSEDTAVYYCAREEYAPFSAEYFQFWGQGTLVTVSS
VL: not shown
notes: Tested as a Fab made in E. coli: VH in Plasmid A (CH1, His6 and Flag tags), kappa VL in Plasmid C (kappa CL)
On to B4, for which the ELISA signal in assay [2] stood at 1.63; in assay [3] it was 1.63; in [4], 1.17; in [5] it was 0.143; in [6] it was 1.36; in assay [7], 0.419. For the same molecule, the figures for the ELISA signal in assay [8] and in [9] were 1.75 and 1.36, respectively.

B5: Fab VH1-46_IGHD6-6*01_IGHJ1*01 S102A/S103P/S104F/H111F (APFF) & L6_IGKJ1*01 W94R (Fab, V domains shown)
VH: QVQLVQSGAEVKKPGASVKVSCKASGYTFTSYYMHWVRQAPGQGLEWMGIINPSGGSTSYAQKFQGRVTMTRDTSTSTVYMELSSLRSEDTAVYYCAREEYAPFSAEYFQFWGQGTLVTVSS
VL: EIVLTQSPATLSLSPGERATLSCRASQSVSSYLAWYQQKPGQAPRLLIYDASNRATGIPARFSGSGSGTDFTLTISSLEPEDFAVYYCQQRSNRPPWTFGQGTKVEIKR
notes: Fab from E. coli; VH in Plasmid A (CH1, His6 and Flag tags), VL in Plasmid C (kappa CL); also called APFF & W94R
Take B5: in the assay with Recombinant Human DLL4, the “ECL signal” value is 75800.

B6: Fab VH1-46_IGHD6-6*01_IGHJ1*01 S102A/S103P/S104F/H111F/I51V/N52L/S54T/G56H (APFF VLTH) & L6_IGKJ1*01 (Fab, V domains shown)
VH: QVQLVQSGAEVKKPGASVKVSCKASGYTFTSYYMHWVRQAPGQGLEWMGIVLPTGHSTSYAQKFQGRVTMTRDTSTSTVYMELSSLRSEDTAVYYCAREEYAPFSAEYFQFWGQGTLVTVSS
VL: not shown
notes: Tested as a Fab made in E. coli: VH in Plasmid A (CH1, His6 and Flag tags), kappa VL in Plasmid C (kappa CL); also called APPF VLTH
Turning to B6, the ELISA signal was 2.05 in assay [2]; 2.05 in assay [3]; 1.66 in assay [4]; 0.252 in assay [5]; 1.85 in assay [6]; 0.785 in assay [7]. Also, the figures for the ELISA signal in assay [8] and in [9] were 2.2 and 1.85, respectively.

B7: Fab VH1-46_IGHD6-6*01_IGHJ1*01 S102A/S103P/S104F/H111F I51N/N52L/S54T/G56H & L6_IGKJ1*01 (Fab, V domains shown)
VH: QVQLVQSGAEVKKPGASVKVSCKASGYTFTSYYMHWVRQAPGQGLEWMGINLPTGHSTSYAQKFQGRVTMTRDTSTSTVYMELSSLRSEDTAVYYCAREEYAPFSAEYFQFWGQGTLVTVSS
VL: not shown
notes: Fab; also called APFF NLTH
With B7, the Kd in assay [1] lay within 1 to 10 nM.

B8: Fab VH1-46_IGHD6-6*01_IGHJ1*01 S102A/S103P/S104F/H111F (APFF) & L6_IGKJ1*01 W94L (Fab, V domains shown)
VH: QVQLVQSGAEVKKPGASVKVSCKASGYTFTSYYMHWVRQAPGQGLEWMGIINPSGGSTSYAQKFQGRVTMTRDTSTSTVYMELSSLRSEDTAVYYCAREEYAPFSAEYFQFWGQGTLVTVSS
VL: EIVLTQSPATLSLSPGERATLSCRASQSVSSYLAWYQQKPGQAPRLLIYDASNRATGIPARFSGSGSGTDFTLTISSLEPEDFAVYYCQQRSNLPPWTFGQGTKVEIKR
notes: Fab from E. coli; VH in Plasmid A (CH1, His6 and Flag tags), VL in Plasmid C (kappa CL); also called APFF & W94L
As to B8, the “ECL signal” value in the assay with Recombinant Human DLL4 was 11600.

B9: Fab VH1-46_IGHD6-6*01_IGHJ1*01 S102A/S103P/S104F/H111F I51T/N52V (APFF I51T/N52V) & L6_IGKJ1*01 (Fab, V domains shown)
VH: QVQLVQSGAEVKKPGASVKVSCKASGYTFTSYYMHWVRQAPGQGLEWMGITVPSGGSTSYAQKFQGRVTMTRDTSTSTVYMELSSLRSEDTAVYYCAREEYAPFSAEYFQFWGQGTLVTVSS
VL: not shown
notes: as for B4
B9: the ELISA signal came to 0.648 in assay [2]; 0.648 in [3]; 0.358 in assay [4]; 0.055 in [5]; 0.506 in assay [6]; 0.115 in [7]. The ELISA signal in assay [8] was determined as 0.724; in assay [9] it was 0.506.
